Target: the molecule itself
Assay: yeast two-hybrid two-by-two matrix, LacZ and HIS3 reporters

B1: HCV core protein, full length (strain H) (other)
chain: MSTNPKPQRKTKRNTNRRPQDVKFPGGGQIVGGVYLLPRRGPRLGVRATRKTSERSQPRGRRQPIPKARRPEGRTWAQPGYPWPLYGNEGCGWAGWLLSPRGSRPSWGPTDPRRRSRNLGKVIDTLTCGFADLMGYIPLVGAPLGGAARALAHGVRVLEDGVNYATGNLPGCSFSIFLLALLSCLTVPASA
notes: mature; also called capsid protein; full-length capsid
B1: no binding.

— patent US20040229213A1 (INSTITUT PASTEUR, published 2004)
